This series has as its target T1, QKI5 (UniProt Q96PU8 1-341).
T1 sequence: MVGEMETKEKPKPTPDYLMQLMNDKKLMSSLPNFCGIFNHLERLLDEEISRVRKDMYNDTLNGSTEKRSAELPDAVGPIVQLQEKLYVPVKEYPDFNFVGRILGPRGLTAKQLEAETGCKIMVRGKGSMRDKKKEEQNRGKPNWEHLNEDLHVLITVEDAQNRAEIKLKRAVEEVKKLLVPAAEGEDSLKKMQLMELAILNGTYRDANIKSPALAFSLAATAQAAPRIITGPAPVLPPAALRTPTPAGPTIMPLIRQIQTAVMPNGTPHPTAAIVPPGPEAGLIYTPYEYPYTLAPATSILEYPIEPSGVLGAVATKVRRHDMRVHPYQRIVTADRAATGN
In words: EMSA; 50 fmol biotin-labelled probe; LightShift Chemiluminescent EMSA Kit per manufacturer; 50 fmol biotin-labelled probe, 4 ul QKI5; room temperature 20 min; native 8% PAGE; buffer, salt and pH not stated. The note with it: protein: commercial; chain copies: 2; label: 5'-biotin (cold version unlabelled); blunt. For orientation: A gel shift assay detects complexes by their altered migration in electrophoresis.

B1: wild-type CXCL2 promoter probe (dsDNA)
DNA 1: GAAAGGATGGGGGATTGCAACACTGTTAAC
DNA 2: GTTAACAGTGTTGCAATCCCCCATCCTTTC
B1: the binding result is reported as “binds”.

B2: mutant CXCL2 promoter probe (dsDNA)
DNA 1: GAAAGGATGGAAAGCCATAACACTGTTAAC
DNA 2: GTTAACAGTGTTATGGCTTTCCATCCTTTC
As to B2, the binding result is “no binding”.

Values taken from PMC8518180, “A global screening identifies chromatin-enriched RNA-binding proteins and the transcriptional regulatory activity of QKI5 during monocytic differentiation”.
